The source of these data is publication PMC4168779.

The target of the experiment is Z protein fused to maltose binding protein, MBP-Z(N6C). Briefly: cross-linking.

“ZSPA affibody (Afb) with BetY at site 36 (designed binder)”: the PEPC efficiency (cross-linking efficiency) was found to be 57%. The same measure for “ZSPA affibody (Afb) with BrC6K at site 36, Afb(D36BrC6K) (designed binder)”: 73%; for “ZSPA affibody (Afb) with IetY at site 36 (designed binder)”: 66%.
